Test results: PMC8122247, “Rational Design of Resveratrol O-methyltransferase for the Production of Pinostilbene” (International Journal of Molecular Sciences, 2021)
Substitutions are numbered along the chain they refer to. Names and notes keep the numbering of the source.

B1: VvROMT variant W20A (enzyme, Vitis vinifera, UniProt B6VJS4 1-357, looked up)
chain: MDLANGVISAELLHAQAHVANHIFNFIKSMSLKCAIQLGIPDIIHNHGKPMTLPELVAKLPVHPKRSQCVYRLMRILVHSGFLAAQRVQQGKEEEGYVLTDASRLLLMDDSLSIRPLVLAMLDPILTKPWHYLSAWFQNDDPTPFHTAYERSFWDYAGHEPQLNNSFNEAMASDARLLTSVLLKEGQGVFAGLNSLVDVGGGTGKVAKAIANAFPHLNCTVLDLSHVVAGLQGSKNLNYFAGDMFEAIPPADAILLKWILHDWSNEECVKILKRCREAIPSKENGGKVIIIDMIMMKNQGDYKSTETQLFFDMTMMIFAPGRERDENEWEKLFLDAGFSHYKITPILGLRSLIEVYP
notes: resveratrol O-methyltransferase (VvROMT), Vitis vinifera, GenBank FM178870, with W20A; made by Gibson Assembly on pET25-GB1-ROMT; source: E. coli BL21 (DE3), purified (IMAC HisTrap FF, TEV cleavage, second IMAC); not shown: His tag (on GB1), N-terminal, cleaved; GB1, N-terminal, cleaved
B2: VvROMT variant F24A (enzyme, Vitis vinifera, UniProt B6VJS4 1-357, looked up)
chain: B1 chain with A20W, F24A
notes: resveratrol O-methyltransferase (VvROMT), Vitis vinifera, GenBank FM178870, with F24A; made by Gibson Assembly on pET25-GB1-ROMT; source: E. coli BL21 (DE3), purified (IMAC HisTrap FF, TEV cleavage, second IMAC); not shown: His tag (on GB1), N-terminal, cleaved; GB1, N-terminal, cleaved

Molecular target: the molecule itself
Assay: SEC; Superdex 75 10/300 GL, 50 mM Tris-HCl pH 7.5, flow 0.5 mL/min; protein at 2 µg/µL, 150 to 300 µL; column calibrated with LMW Gel Filtration kit

Protein | stoichiometry N
B1 | 2
B2 | 2
